Laboratory results: patent US20190367626A1

What was measured:
[1] = target: TRAILshort (UniProt P50591); experiment: flow cytometry of 293T cells transfected with WT TRAILshort, isotype control staining
[2] = target: P76A TRAILshort; experiment: flow cytometry of 293T cells transfected with P76A TRAILshort, isotype control staining

Sequence of TRAILshort (P50591 other isoform, or with tags, fused parts or gaps): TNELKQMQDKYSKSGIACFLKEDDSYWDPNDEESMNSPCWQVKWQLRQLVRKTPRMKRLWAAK

percent of cells in the gate [1]: 3.2%
percent of cells in the gate [2]: 2.2%
Substance: C555 labeled anti-Ig3 Isotype control (antibody)
